Target: the molecule itself
Assay: SEC

B1: His-SUMO tagged Staphylococcus aureus dihydroorotase (PyrC) (enzyme)
chain: LEVLFQGPMKLIKNGKVLQNGELQQADILIDGKVIKQIAPAIEPSNGVDIIDAKGHFVSPGFVDVHVHLREPGGEYKETIETGTKAAARGGFTTVCPMPNTRPVPDSVEHFEALQKLIDDNAQVRVLPYASITTRQLGKELVDFPALVKEGAFAFTDDGVGVQTASMMYEGMIEAAKVNKAIVAHCEDNSLIYGGAMHEGKRSKELGIPGIPNICESVQIARDVLLAEAAGCHYHVCHVSTKESVRVIRDAKRAGIHVTAEVTPHHLLLTEDDIPGNNAIYKMNPPLRSTEDREALLEGLLDGTIDCIATDHAPHARDEKAQPMEKAPFGIVGSETAFPLLYTHFVKNGDWTLQQLVDYLTIKPCETFNLEYGTLKENGYADLTIIDLDSEQEIKGEDFLSKADNTPFIGYKVYGNPILTMVEGEVKFEGDK
stoichiometry N: 2

B2: native (cleaved) Staphylococcus aureus dihydroorotase (PyrC) (enzyme)
chain: GPMKLIKNGKVLQNGELQQADILIDGKVIKQIAPAIEPSNGVDIIDAKGHFVSPGFVDVHVHLREPGGEYKETIETGTKAAARGGFTTVCPMPNTRPVPDSVEHFEALQKLIDDNAQVRVLPYASITTRQLGKELVDFPALVKEGAFAFTDDGVGVQTASMMYEGMIEAAKVNKAIVAHCEDNSLIYGGAMHEGKRSKELGIPGIPNICESVQIARDVLLAEAAGCHYHVCHVSTKESVRVIRDAKRAGIHVTAEVTPHHLLLTEDDIPGNNAIYKMNPPLRSTEDREALLEGLLDGTIDCIATDHAPHARDEKAQPMEKAPFGIVGSETAFPLLYTHFVKNGDWTLQQLVDYLTIKPCETFNLEYGTLKENGYADLTIIDLDSEQEIKGEDFLSKADNTPFIGYKVYGNPILTMVEGEVKFEGDK
stoichiometry N: 2
